# Measured values: patent US12344663B2, “Anti-C3 antibodies and antigen-binding fragments thereof and their uses for treating eye or ocular diseases” (CDR-Life AG, priority 2021, dated 2025)
# Assay: In vitro BrM permeation assay, Ussing chamber
# Format: in vitro ADME, porcine
# Conditions: 0.1 mg/ml, up to 72 h, in words
# Experimental: Porcine Bruch's membrane samples are used for this measurement. Porcine eyes are collected from the slaughterhouse) no more than 6 hours after the animals were sacrificed and stored at 4° C. until use (on same day).
# Preparation of enriched Bruch's Membrane (BrM): The eyes are placed into a disposable petri-dish and any residual tissue surrounding the eyeball is removed. The eyeball is incised next to the iris with a scalpel and the front part of the eye as well as lens, vitreous and retinal tissue are removed from the eyecup. […]
# Sampling and membrane integrity analysis: For sampling at different timepoints (4 h, 24 h, 48 h and 72 h) the solution in the single compartments is mixed by carefully pipetting up and down and 90 μl were transferred separately from each sample and diffusate chamber to collection tubes. […] Accumulation of blue particles in the second compartment is observed and camera pictures are recorded to control for overall membrane integrity.
# Sample analysis: 15 μl of each solution from the sample and diffusate chambers are effectively loaded on 2 precast polyacrylamide gels (NuPAGE Bis-Tris gels) together with a similar amount of stored mastermix as loading control. The first gel is analyzed by standard SDS-PAGE and Coomassie-based staining methods for protein detection (anti-C3 scFv). […]
# Evaluation: Pictures of the SDS-gels are analyzed using ImageJ2 software (Fiji). […]
substance,measurement,value
Gly-I-[CV-Trp(Me)-QDWGAHRC]-T-NH2 [Compound A2],Diffusion/penetration through porcine Bruch's membrane,No penetration
